Assay results taken from article PMC5314769, “Structural insights into dynamics of RecU–HJ complex formation elucidates key role of NTR and stalk region toward formation of reactive state” (Nucleic Acids Research, 2016).

T1: RecU D88N D88N (Bacillus subtilis) (UniProt P39792)
T1 sequence: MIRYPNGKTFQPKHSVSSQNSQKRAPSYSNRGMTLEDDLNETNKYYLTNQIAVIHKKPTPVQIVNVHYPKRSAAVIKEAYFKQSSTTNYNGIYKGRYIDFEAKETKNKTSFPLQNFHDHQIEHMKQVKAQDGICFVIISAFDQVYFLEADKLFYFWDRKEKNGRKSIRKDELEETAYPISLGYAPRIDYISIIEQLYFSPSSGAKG

T2: RecU D88N (Bacillus subtilis, UniProt P39792 1-206, D88N)
T2 sequence: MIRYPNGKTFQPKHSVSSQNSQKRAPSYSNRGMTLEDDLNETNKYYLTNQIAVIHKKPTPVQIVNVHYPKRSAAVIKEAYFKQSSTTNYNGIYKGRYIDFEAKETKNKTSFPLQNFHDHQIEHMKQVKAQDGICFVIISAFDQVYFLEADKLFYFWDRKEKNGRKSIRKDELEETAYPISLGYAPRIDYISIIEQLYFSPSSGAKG

B1: RecU D88N, catalytically inactive mutant of the Holliday junction resolving enzyme RecU from Bacillus subtilis (enzyme, UniProt P39792 1-206, looked up)
chain: MIRYPNGKTFQPKHSVSSQNSQKRAPSYSNRGMTLEDDLNETNKYYLTNQIAVIHKKPTPVQIVNVHYPKRSAAVIKEAYFKQSSTTNYNGIYKGRYIDFEAKETKNKTSFPLQNFHDHQIEHMKQVKAQDGICFVIISAFDQVYFLEADKLFYFWDRKEKNGRKSIRKDELEETAYPISLGYAPRIDYISIIEQLYFSPSSGAKG
notes: the N-terminal region (residues 1-33), the stalk (56-89) and the cap (34-55 and 90-199) are seen in the structure
B2: 12 bp palindromic duplex (dsDNA)
DNA 1: ACGCAATTGCGT
DNA 2: ACGCAATTGCGT

Columns and labels:
[1] = target: T1, RecU D88N D88N (Bacillus subtilis); experiment: thermofluor; details: 1:1 molar ratio; Thermofluor: 100 mM MES pH 6.5, 5 ug RecU D88N per well, DNA 1:1 molar, Sypro orange, 25-100 C in 1 C steps; crystals: 0.1 M BICINE pH 9, 10% PEG 6000, 17 C …
[2] = target: the molecule itself; experiment: crystal structure; RecU D88N mixed with 12 bp palindromic DNA at 1:1.25 molar ratio; crystals in 0.1 M BICINE pH 9, 10% PEG 6000, 17°C; 3.2 Å, space group R32, four RecU chains in the asymmetric unit
[3] = target: T2, RecU D88N; experiment: X-ray crystallography (3.2 A); 0.1 M BICINE pH 9, 10% PEG 6000; Thermofluor: 100 mM MES pH 6.5, 5 ug RecU D88N per well, DNA 1:1 molar, Sypro orange, 25-100 C in 1 C steps; crystals: 0.1 M BICINE pH 9, 10% PEG 6000, 17 C, protein:DNA 1:1.25; details: protein: recombinant; chain copies: 2; blunt; self-complementary, 2 strand copies

Molecule | binding signal [1] | also measured
HJ 10 bp | 6.7 delta Tm, C | –
HJ 11 bp | 8.2 delta Tm, C | –
HJ 12 bp (HJ24?) | 10.1 delta Tm, C | –
B1 | – | binding result [2]: binds
B2 | – | binding result [3]: binds
